doi:10.1101/2021.02.16.431366

Molecular target: mCherry-TRPV5 (rabbit) (UniProt Q9XSM3)
Experiment: single molecule photobleaching counting

Sequence of mCherry-TRPV5 (rabbit) (Q9XSM3 whole entry): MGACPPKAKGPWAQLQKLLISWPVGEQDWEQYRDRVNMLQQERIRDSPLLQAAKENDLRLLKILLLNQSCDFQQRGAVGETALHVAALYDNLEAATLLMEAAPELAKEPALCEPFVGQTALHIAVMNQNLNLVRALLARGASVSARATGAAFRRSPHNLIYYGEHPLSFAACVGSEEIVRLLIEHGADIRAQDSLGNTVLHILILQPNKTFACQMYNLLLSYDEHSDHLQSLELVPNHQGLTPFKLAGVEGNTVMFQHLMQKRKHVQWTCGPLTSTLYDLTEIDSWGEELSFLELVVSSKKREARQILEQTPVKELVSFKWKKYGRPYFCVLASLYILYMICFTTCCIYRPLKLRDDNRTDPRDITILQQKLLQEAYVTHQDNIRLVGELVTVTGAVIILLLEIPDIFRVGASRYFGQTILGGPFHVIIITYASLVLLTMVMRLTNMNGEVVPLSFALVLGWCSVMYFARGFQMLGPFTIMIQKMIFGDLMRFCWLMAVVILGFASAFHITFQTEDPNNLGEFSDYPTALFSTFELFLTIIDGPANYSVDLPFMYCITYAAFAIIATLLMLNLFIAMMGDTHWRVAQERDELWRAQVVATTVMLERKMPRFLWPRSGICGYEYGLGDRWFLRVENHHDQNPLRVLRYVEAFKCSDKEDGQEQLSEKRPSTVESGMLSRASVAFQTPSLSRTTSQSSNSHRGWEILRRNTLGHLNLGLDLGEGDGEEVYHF

stoichiometry N (CaM molecules per TRPV5 tetramer): 2
Substance: CaM-eGFP (from UniProt P0DP29 1-149) (natural protein)
